Experiment [1] addresses T1, human CD3 (huCD3ed) (human, UniProt P07766 23-126; P04234 22-105).
T1 construct: Soluble analyte in SPR; The delta chain is inferred from the label 'ed'; also called hCD3ed; hCD3
Briefly: Biacore SPR, antibody as ligand, hCD3ed 80 nM-0.64 nM, kinetic fit. (In general: In SPR one partner is held on a chip, and binding of the other changes the refractive index at the surface.)

The target in experiment [2] is T1, human CD3 (huCD3ed). Kind of experiment: Biacore SPR, antibody as ligand, hCD3ed; steady state affinity only, rough estimate (antibody heterogeneous).
The target of the next experiment is T2, cynomolgus CD3 (cyCD3ed) (cynomolgus, UniProt Q95LI5 22-117; Q95LI8 22-105).
T2 construct: Named only by the column head 'cyCD3ed'
Kind of experiment: SPR (ProteOn XPR36), IgG amine-coupled on chip, cyCD3ed as analyte, 25 C.

The target of experiment [3] is T1, human CD3 (huCD3ed). Briefly: SPR (ProteOn XPR36), IgG amine-coupled on chip, huCD3ed as analyte, 25 C. Here is the method:
(§1) All experiments were performed on a Bio-Rad Proteon XPR36 surface Plasmon resonance biosensor (Bio-Rad, Hercules, CA). […] The analysis temperature for the immobilization was 25° C. and the running buffer was HBS-T+(10 mM HEPES, 150 mM NaCl, 0.05% Tween-20, pH 7.4). Channels were activated in the analyte (horizontal) direction by injecting a mixture of 1 mM ECD and 0.25 mM NHS for 3 minutes at a flow rate of 30 μL/min. IgGs were immobilized on the activated spots by injecting them in the ligand (vertical) direction at […] in 10 mM Acetate pH 4.5 buffer for 1.5 minutes at 30 μg/mL. The activated surfaces were blocked by injecting 1M ethanolamine, pH 8.5 in the analyte direction for 3 minutes at 30 μL/min.
(§2) The analysis temperature for the hCD3 binding analysis was 37° C. or 25° C. in a running buffer of HBS-T+, supplemented with 1 mg/mL BSA. A kinetic titration method was employed for the interaction analysis as described in Abdiche, et al. The hCD3 (human CD3) analyte was injected in the analyte direction using a series of injections from low to high concentration. The concentrations used were 0.08 nM, 0.4 nM, 2 nM, 10 nM and 50 nM (a 5-membered series, with a 5-fold dilution factor and top concentration of 50 nM). The association time for a given analyte dilution was two minutes. Immediately after the 50 nM hCD3 injection, dissociation was monitored for 2 hours.
(§3) The sensorgrams were double-referenced and fit to a 1:1 Langmuir with mass transport kinetic titration model in BIAevaluation Software version 4.1.1 (GE Lifesciences, Piscataway, NJ).

Experiment [4] deals with T1, human CD3 (huCD3ed). Briefly: SPR (ProteOn XPR36), IgG amine-coupled on chip, huCD3ed as analyte, 37 C. How it is done: as §1, §2, §3
In experiment [5] the target is T1, human CD3 (huCD3ed). Briefly: SPR (ProteOn XPR36), IgG on chip, huCD3ed analyte, 37 C; column head says nM but kd/ka gives this number in M. How it is done:
as §1, §2, §3

In the next experiment the target is T3, human BCMA (human, UniProt Q02223 1-54).
T3 construct: soluble analyte in SPR; also called hBCMA; huBCMA
T3 sequence: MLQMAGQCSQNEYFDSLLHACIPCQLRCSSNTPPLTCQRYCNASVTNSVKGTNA
Kind of experiment: SPR, IgG immobilized, human BCMA analyte, 37 C. How it is done:
as §1, with “at […]. The activated” for “at 30 μg/mL. The activated”, “at […].” for “at 30 μL/min.”
as §2, with “hBCMA” for “hCD3”, “BCMA)” for “CD3)”
as §3

Experiment [6] concerns the target T4, human BCMA on BCMA-expressing tumor cells (human, UniProt Q02223 1-184).
T4 construct: endogenous BCMA of myeloma cell lines; also called BCMA on KMS12PE, MM1S (MM1.S), L363, KMS12BM cells
T4 sequence: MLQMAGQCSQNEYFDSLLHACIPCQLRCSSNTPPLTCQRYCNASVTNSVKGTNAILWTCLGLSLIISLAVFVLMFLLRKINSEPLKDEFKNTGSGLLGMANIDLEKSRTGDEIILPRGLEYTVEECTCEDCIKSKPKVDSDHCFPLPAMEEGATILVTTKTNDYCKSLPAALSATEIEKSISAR
Kind of experiment: flow cytometry, 0.5 ug antibody on 250,000 L363 (BCMA+) cells, Alexa Fluor 647 anti-mouse IgG. How it is done: (§4) Binding of human anti-hBCMA expressed in mouse IgG2a were assessed on BCMA-expressing cells (KMS12BM, L363, MM1S and KMS12PE) by flow cytometry. 250,000 cells were incubated with 0.5 ug antibody in 100 uL binding buffer (PBS (Phosphate Buffered Saline)+0.2% BSA (Bovine Serum Albumin)), followed by incubation with Alex Fluor 647 conjugated anti-mouse IgG (Biolegend).
(Flow cytometry measures light scatter and fluorescence of single cells or particles in a stream.)

The target of experiment [7] is T4, human BCMA on BCMA-expressing tumor …. Kind of experiment: flow cytometry, 0.5 ug antibody on 250,000 MM1S (BCMA++) cells, Alexa Fluor 647 anti-mouse IgG. Here is the method:
as §4

Experiment [8] has the same target. Briefly: flow cytometry, 0.5 ug antibody on 250,000 KMS12BM (BCMA+) cells, Alexa Fluor 647 anti-mouse IgG. How it is done:
as §4

For experiment [9] the target is unchanged. Briefly: flow cytometry, 0.5 ug antibody on 250,000 KMS12PE (BCMA+++) cells, Alexa Fluor 647 anti-mouse IgG. Here is the method: as §4

The values below come from US20240018252A1 (Pfizer, published 2024).

Where a chain is given by its changes, count along the chain named.

T1 sequence (P07766 23-126, chain 1 of 2): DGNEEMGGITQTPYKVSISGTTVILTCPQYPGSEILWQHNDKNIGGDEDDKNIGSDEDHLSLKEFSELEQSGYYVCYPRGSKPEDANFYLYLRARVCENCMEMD
T1 sequence (P04234 22-105, chain 2 of 2): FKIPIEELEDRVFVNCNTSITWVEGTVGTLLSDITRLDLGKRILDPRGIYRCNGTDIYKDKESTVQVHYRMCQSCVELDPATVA
T2 sequence (Q95LI5 22-117, chain 1 of 2): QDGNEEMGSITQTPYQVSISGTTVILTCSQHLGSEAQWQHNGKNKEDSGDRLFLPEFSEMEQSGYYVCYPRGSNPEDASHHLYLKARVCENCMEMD
T2 sequence (Q95LI8 22-105, chain 2 of 2): as the sequence (P04234 22-105, chain 2 of 2) above, with I5V, N15K, I20V, S32T, D33N, I34N, T64A, S74N, V83L counted along it

B1: 1C10 (antibody, mouse IgG1, V domains shown)
VH: QVQLQQPGSELVRPGASVILSCKASGYTFTSYWMHWVRQRPGQGLEWIGNIYSGGDTINYDEKFKNKAILTVDTSSSTAYMHLSSLTSEDSAVYYCTRDATSRYFFDYWGQGTTVTVSS
VL: DIVMSQSPSSLAVSAGEKVTMSCKSSQSLLNSRTRKNYLAWYQQKPGQSPKLLIYWASTRESGVPDRFTGSGSGTDFTLTIDSVQPEDLAVYYCTQSFILRTFGGGTKLEIK
notes: Cloned from immunized mouse, expressed as mouse IgG1; also called anti-CD3 1C10
Take B1: in the experiment with human CD3 (huCD3ed) [1], binding was characterised by a dissociation constant (Kd) of 8 nM and the “t1/2” value stood at 4.88 min.

B2: 1A4 (antibody, mouse IgG1, V domains shown)
VH: QVQLQQSGPDLVKPGASVEISCKASGYSFTTYYLHWVRQRPGQGLEWIGWIFPGSDNTKYNEKFKGKATLTADTSSSTAYMQLSSLTSEDSAVYFCARNRDYYFDYWGQGTTVTVSS
VL: B1 VL with E61A, D82S, P86A, V91I, T95K
notes: Cloned from immunized mouse, expressed as mouse IgG1; also called anti-CD3 1A4
B2: in the experiment with human CD3 (huCD3ed) [2], the equilibrium dissociation constant (Kd) was 100 nM.

B3: 7A3 (antibody, mouse IgG1, V domains shown)
VH: EVQLQQSGAELVRPGALVKLSCKGSGFNIKDYYIHWVKQRPEQGLEWIGWIDPENGNNKYDPKFQGKASITADTSSNIAYLQLSSLTSEDTAVYYCARNDNYAFDYWGQGTTVTVSS
VL: B1 VL with M4V, T20I, Q44L, W56S, D82S, P86T, T95M, I99T
notes: Cloned from immunized mouse, expressed as mouse IgG1; also called anti-CD3 7A3
Consider B3, for which the Kd in the experiment with human CD3 (huCD3ed) [2] is 82.7 nM.

B4: h2B4 (antibody, V domains shown)
VH: EVQLVESGGGLVQPGGSLRLSCAASGFTFSDYYMTWVRQAPGKGLEWVAFIRNRARGYTSDHNASVKGRFTISRDNAKNSLYLQMNSLRAEDTAVYYCARDRPSYYVLDYWGQGTTVTVSS
VL: DIVMTQSPDSLAVSLGERATINCTSSQSLFNVRSRKNYLAWYQQKPGQPPKLLISWASTRESGVPDRFSGSGSGTDFTLTISSLQAEDVAVYYCKQSYDLFTFGSGTKLEIK
notes: Anti-CD3; tested as human IgG immobilised on the chip; also called h2B4-1d
Regarding B4, in the experiment with cynomolgus CD3 (cyCD3ed), the dissociation constant (Kd) was 3.8 nM, the “T½” value is 7.7 min, the koff is 0.0015 s⁻¹ and the kon is 390000 M⁻¹ s⁻¹. In the experiment with human CD3 (huCD3ed) [3], binding was put at a Kd of 5.3 nM, the “T½” value is 5.8 min, the koff is 0.002 s⁻¹ and the association rate constant (kon) stood at 370000 M⁻¹ s⁻¹. In the experiment with human CD3 (huCD3ed) [4], the “T½” value is 0.84 min, the koff was found to be 0.0137 s⁻¹ and the association rate constant (kon) is 437000 M⁻¹ s⁻¹. In the experiment with human CD3 (huCD3ed) [5], this molecule registered a Kd of 31.4 nM.

B5: 2B4 (antibody, mouse IgG1, V domains shown)
VH: EVKLVESGGGLVQPGGSLRLSCATFGFTFTDYYMTWVRQPPGKALEWVAFIRNRARGYTSDHNASVKGRFTISRDNSQNILYLQMNTLRAEDSATYYCARDRPSYYVLDYWGQGTTVTVSS
VL: DIVMSQSPPSLAVSVGDKVTMSCTSSQSLFNSRSRKNYLAWYQQKSGQSPKLLISWASTRESGVPDRFTGSGSGTDFTLTISSVQAEDLAVYYCKQSYDLFTFGSGTKLEIK
notes: Cloned from immunized mouse, expressed as mouse IgG1; also called anti-CD3 2B4
For B5, in the experiment with human CD3 (huCD3ed) [1], binding was put at a Kd of 7.33 nM and the “t1/2” value came out at 4.21 min.

B6: COMBO_Rd4_0.6nM_C19 (antibody, V domains shown)
VH: EVQLLESGGGLVQPGGSLRLSCAASGFTFSSYPMSWVRQAPGKGLEWVSAIGGSGGSLPYADSVKGRFTISRDNSKNTLYLQMNSLRAEDTAVYYCARYWPMDSWGQGTLVTVSS
VL: EIVLTQSPGTLSLSPGERATLSCRASQSVSAVYLAWYQQKPGQAPRLLMYDASIRATGIPDRFSGSGSGTDFTLTISRLEPEDFAVYYCQQYRAWPLTFGQGTKVEIK
notes: IgG in SPR
In the experiment with human BCMA, B6 registered a Kd of 0.02 nM, a koff of 0.000155 s⁻¹ and an on-rate constant (kon) of 7.86e+06 M⁻¹ s⁻¹.

B7: A02_Rd4_6 nM_C16 expressed in mouse IgG2a (antibody, V domains shown)
VH: B6 VH with P33A, S35N, G52S, G53D, S54F, L58T, P59Y, S104I
VL: B6 VL with A31D, V32L, R93Q, A94T
For the molecule B7, the MFI is 789 in [6], 1950 in [7], 421 in [8] and 3090 in experiment [9].

B8: Combo_Rd4_0.6 nM_C29 expressed in mouse IgG2a (antibody, V domains shown)
VH: B6 VH with S104I
VL: B6 VL with A31S, V32S, R93Q, A94S
For B8, the MFI was 1670 in experiment [6], 2570 in [7], 583 in experiment [8] and 6110 in experiment [9].

B9: A02_Rd4_6 nM_C01 expressed in mouse IgG2a (antibody, V domains shown)
VH: B6 VH with P33A, S35N, G52T, G53A, L58T, P59Y, D103S, S104L
VL: B6 VL with V32Y, R93E, A94R
For the molecule B9, the MFI in experiment [6] is 1180; in experiment [7], 2540; in experiment [8], 580; in [9], 5860.

What is called Kd is a measure of binding affinity in units of concentration. For orientation: koff means the first-order rate constant of dissociation. Read a low koff as a long-lived complex. Broadly, the kon is the rate constant with which the complex forms. Read a low kon as slow association.
